The results in this text go back to US20210255174.

Data set [1] has as its system Control peptide #112: [5-Fam]TRIDEANQRATK[DABCYL]-Hex.
The subject of data set [2] is Control peptide #113: [4-Mu]TRIDEANQRATK[DABCYL]-Hex.

In general, KM refers to the concentration of substrate that gives half-maximal velocity. In the case of Trypsin, the Michaelis-Menten constant (KM) in data set [1] amounted to 3.75 µM; in data set [2], 13.3 µM.
